Test results as given in the supplement of paper PMC12764529.
± gives the half width of the 95% confidence interval.

Experiments:
[1] = folding stability dG unfold from trypsin proteolysis; higher = more stable
Procedure, shortened: (§1)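 How resistant each design was to proteolysis was captured as K50, inferred by Bayesian fitting of sequencing counts. Unfolding free energy was then derived relative to a sequence-predicted unfolded-state K50 and a shared folded-state K50, per protease or combined. Digestion used trypsin and chymotrypsin at 11 threefold-diluted concentrations plus a no-protease condition, on mini-proteins under 80 residues without cysteine in a PA-tagged cDNA display construct. Designs were kept only when AlphaFold2 dimer inter-PAE was above 15.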

[2] = folding stability dG unfold (combined trypsin and chymotrypsin); higher = more stable
Procedure, shortened: as §1

[3] = folding stability dG unfold from chymotrypsin proteolysis; higher = more stable
Procedure, shortened: as §1

Sequence	folding stability dG unfold [1]	folding stability dG unfold [2]	folding stability dG unfold [3]
SAGGPGEEYKHPNGMAMRRDPENGKVEMRKVPPIPIEIKIEIDPALGWIRLSITIPNGKKIEFTFPFSAGGS [r16_453_TrROS]	9.86 ± 0.218 kJ/mol	13.9 ± 0.837 kJ/mol	17.2 ± 1.34 kJ/mol
SAGGSAGGSAPVIRIEVDGKVYEIPADVLKEKGLTIEELAEELEKKHNIKVEKVEDGTIRVTSAGGSAGGSA [r18_7_TrROS_Hall]	6.96 ± 0.28 kJ/mol	8.78 ± 0.326 kJ/mol	10.1 ± 0.163 kJ/mol
AKLPEGAKVVIEVRRADDGETRTITLDDDVTITITYDKDTGKVEVRAYVFDKNGKLVAEETLTLSLEELLSS [r1_380_TrROS_Hall]	7.39 ± 0.113 kJ/mol	12.9 ± 0.28 kJ/mol	14.68 ± 0.0711 kJ/mol
SAGGLVLPPDAVVTGTLTAPRPDGSTVTVRARVRFPPRPPPPPLVLVRLPDGSVRPVRSLEEARRLASAGGS [r16_580_TrMRF]	13.2 ± 0.46 kJ/mol	14.6 ± 0.418 kJ/mol	15.7 ± 0.247 kJ/mol
SAGGKEKYKVIEIKVKPEDVTAEELQAELEKKGYEIYVDGKKIKPGESVEDLLAKNPNATLTIVVKESAGGS [r8_38_TrROS_Hall]	3.87 ± 0.711 kJ/mol	7.16 ± 0.837 kJ/mol	8.1 ± 0.46 kJ/mol
SAGGSAKTIEITLEDGSKVTITEVKDGYIRIYVSEEAKEALKKLGLEEVDEENNVITLPLEKLKKLSAGGSA [r15_984_TrROS_Hall]	5.1 ± 0.218 kJ/mol	6.77 ± 0.418 kJ/mol	7.79 ± 0.188 kJ/mol
SAGGSAGGSAGGLGPDEKPKVKYLALIYDPETGEVTVVPADKLDKVLKETDASVSLFPVSAGGSAGGSAGGS [r10_1121_TrMRF]	1.47 ± 0.418 kJ/mol	2.36 ± 0.837 kJ/mol	1.68 ± 0.418 kJ/mol
SAGGSAGGSAGVIDKENDRWYITQETPGGEPKTIPIPWDDIPDLPPENVKEVELMPPDDISAGGSAGGSAGG [r11_779_TrROS]	-0.747 ± 0.13 kJ/mol	-0.01 ± 0.418 kJ/mol	-0.0232 ± 0.234 kJ/mol
SAGGSAGGSAGLPVLRPLIIPGPSVLRILEVRLREDGSVEVISEETIPLPPPIPSPSELTSAGGSAGGSAGG [r11_843_TrMRF]	3.19 ± 0.159 kJ/mol	3.79 ± 0.544 kJ/mol	4.16 ± 0.669 kJ/mol
SAGGSAGGSAGGMEVKVEEFVENGKPVVREFYPDSIKVTTYTFDENGNVTEKKEYVIPKESAGGSAGGSAGG [r7_722_JUSTAS]	1.73 ± 0.255 kJ/mol	2.89 ± 0.711 kJ/mol	3.85 ± 0.628 kJ/mol
SAGGKVAAPAQPLASTKVERTTLPTGTTVTYVTVTSSAVPTPTTYTFSPGENPGDFAAATGLPVTLVSAGGS [r16_676_JUSTAS]	-2.04 ± 1.21 kJ/mol	0.528 ± 0.385 kJ/mol	1.42 ± 0.347 kJ/mol
SAGGSAGGSAGRLLLEGLGADEVLRLEPEPDRVPIVVRHRDGGRDVVIEMDFEEAVRAILSAGGSAGGSAGG [r11_630_TrMRF]	-5.12 ± 2.8 kJ/mol	-3.22 ± 1.76 kJ/mol	-2.25 ± 1.17 kJ/mol
SAGGKVLVFYAPSPELIEKWAKELGLKLKKVSKEGDKFVAEFELPSGEKVLVVADEEAFKKLGIDPEKISAG [r5_12_TrMRF]	12.3 ± 0.418 kJ/mol	15.7 ± 0.753 kJ/mol	17.1 ± 0.502 kJ/mol
SAGGEKLETFPFKGDDDREVTLVRFEGEDRILLLVYDPDTDKVLLIAPDAIAEIDLKTGEAKVILKKSSAGG [r13_416_TrMRF]	6.96 ± 0.192 kJ/mol	8.29 ± 0.205 kJ/mol	8.833 ± 0.0669 kJ/mol
SAGGSAGGSNRLVFRFGGYYYVVEIKPPNGKEETIMMPPDDIDDLPKNWKVEVEPIKPGQPIPSAGGSAGGS [r12_419_TrROS]	4.55 ± 0.502 kJ/mol	4.93 ± 0.837 kJ/mol	6.11 ± 0.962 kJ/mol
SAGGSAGGSAGMEPVYLLVKRTNPATGGREEALLAVPAEDLDAVREALEALPGVEEIEEISAGGSAGGSAGG [r17_438_TrMRF]	1.18 ± 0.209 kJ/mol	3.71 ± 0.331 kJ/mol	4.94 ± 0.331 kJ/mol
SAGGSAGGSAEIVPVDGKLYVRIEVDGKTYVFEFDSVEELKNATFTLPNGKKVKVEIVPKEDLSAGGSAGGS [r12_730_TrROS_Hall]	9.47 ± 0.28 kJ/mol	13.1 ± 0.247 kJ/mol	14.36 ± 0.121 kJ/mol
SAGGSAGGSAGGMKVERVEVVELPNGQRVLTRTLEVVPPDGSSRVLETEVRFYPPDEALLSAGGSAGGSAGG [r7_917_JUSTAS]	-2.79 ± 1.59 kJ/mol	0.173 ± 0.272 kJ/mol	1.22 ± 0.251 kJ/mol
SAGGSAGGSAIKAPPNSKIIKIEVKPLPNGDLLVEITIIDVPPDDSIGSGKYKILIKLEKGGSAGGSAGGSA [r18_273_TrMRF]	11.7 ± 1.26 kJ/mol	12.7 ± 1.09 kJ/mol	13 ± 0.669 kJ/mol
SAGGSAGGSAGGAPNAPKPVLVFAEVTVTSVEYDPETGELRIEVELPDGGEKLTFRLPLSAGGSAGGSAGGS [r10_427_TrMRF]	8.08 ± 0.13 kJ/mol	9.33 ± 0.226 kJ/mol	10.2 ± 0.13 kJ/mol
SAGGSAGGSAGGSEEILDVKVDEKENTLVITTKLPSGGTTTKEIKVENVPPFPESNVKVSAGGSAGGSAGGS [r4_372_JUSTAS]	-2.24 ± 0.301 kJ/mol	0.19 ± 0.586 kJ/mol	1.3 ± 0.151 kJ/mol
